This note sets out measurements from publication PMC4507774, “Arabidopsis seed-specific vacuolar aquaporins are involved in maintaining seed longevity under the control of ABSCISIC ACID INSENSITIVE 3”.

Data set [1] addresses T1, ABI3-B3 (partial ABI3, B3 domain) (UniProt Q01593 559-720).
T1 sequence: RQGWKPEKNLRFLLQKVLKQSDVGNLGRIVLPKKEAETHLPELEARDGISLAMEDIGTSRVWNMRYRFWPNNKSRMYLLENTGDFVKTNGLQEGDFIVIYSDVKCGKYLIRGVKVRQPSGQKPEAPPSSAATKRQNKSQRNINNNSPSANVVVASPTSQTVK
Briefly: EMSA; EMSA: 1x LightShift binding buffer, 2.5% glycerol, 50 ng/ul poly(dI-dC), 50 mM KCl, 0.5 mM EDTA, 20 C, 30 min; pH not stated. The conditions noted are these: protein: recombinant; tags: His (pET28a, Ni-NTA); label: biotin; blunt. A general note: A gel shift assay detects complexes by their altered migration in electrophoresis.

Data set [2] addresses T1, ABI3-B3 (partial ABI3, B3 domain). Nature of the data set: competition; 40- or 200-fold unlabelled competitor vs 32RY-bio; EMSA: 1x LightShift binding buffer, 2.5% glycerol, 50 ng/ul poly(dI-dC), 50 mM KCl, 0.5 mM EDTA, 20 C, 30 min; pH not stated. The conditions noted are these: protein: recombinant; tags: His (pET28a, Ni-NTA); blunt.
For data set [3] the target is unchanged. Briefly: competition; 40- or 200-fold unlabelled competitor vs 31RY2-bio; EMSA: 1x LightShift binding buffer, 2.5% glycerol, 50 ng/ul poly(dI-dC), 50 mM KCl, 0.5 mM EDTA, 20 C, 30 min; pH not stated. The conditions noted are these: protein: recombinant; tags: His (pET28a, Ni-NTA); blunt.

B1: 32RY-bio (TIP3;2 promoter RY) (dsDNA)
DNA 1: CTTGATCCACTTGGCACACATGCATAGATATATAGTCACAGC
DNA 2: GCTGTGACTATATATCTATGCATGTGTGCCAAGTGGATCAAG
B1: the binding result in data set [1] is “binds”.

B2: 32RY-cold (dsDNA)
DNA 1: CTTGATCCACTTGGCACACATGCATAGATATATAGTCACAGC
DNA 2: GCTGTGACTATATATCTATGCATGTGTGCCAAGTGGATCAAG
B2: the binding result in data set [2] is given as “binds”.

B3: 31RY2-mu (dsDNA)
DNA 1: ATCTACTTGGCACAGCGCTAGCCTTAGTCAACACA
DNA 2: TGTGTTGACTAAGGCTAGCGCTGTGCCAAGTAGAT
Turning to B3, in data set [3], the binding result is reported as “no binding”.

B4: 31RY2-bio (TIP3;1 promoter RY2) (dsDNA)
DNA 1: ATCTACTTGGCACACATGCATGCTTAGTCAACACA
DNA 2: TGTGTTGACTAAGCATGCATGTGTGCCAAGTAGAT
For the molecule B4, the binding result in data set [1] was “binds”.

B5: 31RY2-cold (dsDNA)
DNA 1: ATCTACTTGGCACACATGCATGCTTAGTCAACACA
DNA 2: TGTGTTGACTAAGCATGCATGTGTGCCAAGTAGAT
On to B5, for which, in data set [3], the binding result is “binds”.

B6: 32RY-mu (dsDNA)
DNA 1: CTTGATCCACTTGGCACAGCGTACTAGATATATAGTCACAGC
DNA 2: GCTGTGACTATATATCTAGTACGCTGTGCCAAGTGGATCAAG
With B6, in data set [2], the binding result is recorded as “no binding”.
